Test: yeast display, Sf9 membrane polyspecificity reagent, FACS + sequencing; frameworks hold sequencing errors
Method in brief: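 A synthetic nanobody library was expressed on Saccharomyces cerevisiae BJ5465 by galactose induction for 36–48 hours. The library was stained for 1 hour at 4 °C with 10% biotinylated, detergent-solubilized Sf9 membrane reagent and enriched with streptavidin microbeads before FACS. Low and high (top ~1%) gates were set on anti-HA fluorescence for expression and streptavidin fluorescence for reagent binding, and each polyreactivity label reflects the gate of origin.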

| Sequence | polyreactivity (PSR sort gate) |
| --- | --- |
| QVQLVESGGGLVQAGGSLRLSCAASGRTFSGYPMGWYRPAPGKERELVAAISWSGGSTYYADSVKGRFTISRDNAKNTVYLQMNSLKPEDTAVYYCAAYTYSFRANHDYWGQGTQVTVSS | high polyreactivity |
| QVQLVESGGGLVQAGGSLRFSCAASGSTFAYNDMGWYRQAPGKERELVADIRSGGNTNYADSVKGRFTISRDNAKNTVYFQMNSLKPEDTAVYYCATDGYRIDVYHPDYRYDYWGQGTQVTVSS | low polyreactivity |
| QVQLVESGGGLVQAGGSLRLSCAASGGIFPSYAMGWYRQAPGKERELVAAITRGASTYADSVKGRFTISRDNAKNTVYLQMNSLKPEDTAVYYCAADTKRRSIRYDYWGQGTQVTVSS | high polyreactivity |
| QVQLVESGGGLVQAGGSLRLSCAASGFTFYVYAMGWDRQAPGKEREFVAAISSSGGSTYYADSVKGRFTISRDNAKNTVYLQMNSLKPEDTAVYYCAALAYSTTRGRLDYWGQGTQVTVSS | high polyreactivity |
| QVQLVESGGGVVQAGGSLRLSCAASGRIFGGYAMGWYRQAPGKERELVAAISGSGGRTDYADSVKGRFTISRDNAKNTVYLQMNSLKPDDTAVYYCNKGYVYGHEYWGQGTQVTVSS | high polyreactivity |
| QFQLVEYGGGLFQAGGSLRLSCDASGSIFPYNDLGWYRQAPGKERELVARITNGGSTNYADSVKGRFTISRDNAKNTFYLQMNSLKPEDTAGYYCNKDGTQEFAPDGHEYWGQGTQVTVSS | low polyreactivity |
| QVQLVESGGGLVQAGGSLRLSCAASGRIFKVNAMVWYRQPPGKERELVAAIRWSGGSTYYADSVKGRFTISRDNAKNTVYLQMNSLKPEDTAVFYCAATWSRRFDYWGQGSQVTVSS | low polyreactivity |
| QVQLVESGGGLVQAGGSLRLSCAASGYTFKSYALGWYRQAPGKERELVASISNDGSTNYADSVKGRFTISRDNAKNTVYLQMNSLKPEDTAVYYCNADFYDAPSQWARTGFDYWGQGTQVTVSS | low polyreactivity |
| QVQLVESGGGLVQAGGSLRLSCAPSGLIIWDYVMGWYRQAPGKERELVAAISRSGGRTYYADSVKGRFTISRDNAKNTVYLQMNSLKPEDTAVYYCAARVRFSYASRSGYWGQGTQVTVSS | high polyreactivity |
| QVQLVESGGGLVQSGGSLRLSCAASGRTYGYNAMGWYRQAPGKERELVAAISRSGDSTYYADSVKGRFTISRDNAKNTVYLQMNSLKPEDTAVYYCATRYVTTGYDYWGQGTQVTVSS | low polyreactivity |
| QVQLVESGGGLVQSGGSLRLSCAASGSTFVSNAMGWYRQAPGKERELVAAINGSGGITYYADSVKGRFTISRDNAKNTVYLQMNSLKPEDTAVYYCAAEYDGPSTWVDYYYHYGYWGQGTQVTVSS | low polyreactivity |
| QVQLVESGGGLVQAGGSLRLSCAASGFIFWKYAMGWYRPAPGKERELVAAISRSGGRTYYADSVKGRFTISRDNAKNTVYLQMNSLKPEDTAVYYCAKDSATYPYGTVGEYNYWGQGTQVTVSS | high polyreactivity |
| QVQIVESGGGIVQAGGSLRLSCAASGFIFVFNAMGWNRKAPGKERELVAAINGGDNTNYADSVKGRFTISRDNAKNTVYLQINSLKPEDTAVYYCAAEGEDSMWTGYDYDYWGQGTQVTVSS | low polyreactivity |
| QVQLVESGGGLVQAGGSLRLSCAPSGRIFGVYAMGWYRQAPGKERELVATIRSSGTRTNYADSVKGRFTISRDNAKNTVYLQMNSLKPEDTAVYYCAAGGRPYKLDFTRSDYWGQGTQVTVSS | low polyreactivity |
| QVQLVESGGGLVQAGGSLRLSCAASGIIFGAYAMGLYRQAPGQERVFVAAISRSGSRTYYADSVKGRFTISRDTAKNTVYLQMNSLKPEDTAVYYCAAESPVLYYWGQGTQVTVSS | high polyreactivity |
| QVQLVESGGGLVQAGGSLRLSCAASGSTFRYYAMGWYRQAPGKERELVAGICSGGTTKYADSVKGRFTISRDNAKNTVYLQMNSLKPEDSAVYYCAARFRRTRVTYYYWGQGTQVTVSS | high polyreactivity |
| QVQLVESGGGLVQAGGSLRLSCAASGRTFSYYTMGWYRQAPGKERELVARISNRGTNTYYADSVKGRFTISRDNAKNTVYLQMNSLKPEDTAVYYCAATQPYWWAYRYDYWGQGTQVTVSS | low polyreactivity |
| QVQLVESWGGIVQAGGILRLSFAAYGRIFASNAMGWYRKAPGKERELVAGISRNGGSTFYEDSVKGRYTISRDTAKNTVYLQMISLKPDDTAVYYCARYYTHSGGYRDRIYYYWGQGTQVTVSS | low polyreactivity |
| QVQLVESGGGLVQAGGSLRLSCAASGRIFANYARGWYRQAPGKERELVAAITASGGSTYYADSVKGRFTISRVNAKNTVYLQMNSLKPEDTAGYYCAKGYRLYTMYSWGQGTQVTVSS | high polyreactivity |
| QVQLVESGGGLVQAGGSLRLSCAASGRIFTINAMGWYRQAPGKERELVAAISWSGVRTYYADSVKGRFTISRDNAKNTVYLQMNSLKPEDTAVYYCAKRRQYQRSYNYWGQGTQVTVSS | low polyreactivity |
| QVQLVESGGGLVQAGGSLRLSCAASGSTFGDYVMGWYRQAPGKERELVATITDSGGSTYYADSVKGRFTISRDNAKNTVYLQMNSLKPEDTAVYYCNKDFSVEVYDTAYNYYSYRYGYWGQGTQVTVSS | low polyreactivity |
| QVQLVESGGGLVQAGGSLRLSCAASGITFSYYAMGWYRQAPGKERELVAAISRTGTSTYYADSVKGRFTISRDNAKNTVYLQMKSLKPEDTAVYDCAAVPRHPYHDKYDYWGQGTQVTVSS | high polyreactivity |

| Sequence | polyreactivity (PSR sort gate) |
| --- | --- |
| QVQLVESGGGLVQAGGSLRLSCAASGRTLASNAMGWYRQAPGKERELVAAINRGGSTYYADSVKGRFTISRDNAKNTVYLQMNSLKPEETAVYYCAVDRYRYPFDYWGQGTQVTVSS | low polyreactivity |
| QVQLVESGGGLVQAGGSLRLSCAASGFTFYYNAMGWYRQAPGKERELVAAISSRGTSTYYADSVKGRFTISRDNAKNTVYLQMNSLKPEDTAVYYCNTDRIGRYYQSYGGGHMDYWGQGTQVTVSS | high polyreactivity |
| QVQLVESGGGLVQAGGSLRLSCADSGSTFDDNAMGWYRQAPGKDRELVASITYRGGSTYYADSVKGRFTISRDNAKNTVYLQMNSLKPEDTAVYYCAKGHYFKYDYWGQGTQVTVSS | low polyreactivity |
| QVQLVESGGGLLQAGGSLRLSCDASGRIFGPNARGWYRQAPGKERELVDSISYSGGYTYYADSVKGRFTISRDNAKITFYLQMLSLIPVDTAVYYCAKGGYWSGYNYWGHGTQVTVSS | low polyreactivity |
| QVQVVESGGALVQAGGSLRLSCAASGRIFSPYAMGWYRQAPGKESELVAAITSASSTYYADSVKGRFTISRDNAKNTVYLEMNRLKPEDTAVYYCAASYWRYGSAFDYWGQGTQVTVSS | high polyreactivity |
| QVQLVESGGGLVQAGGSLRLSCAASGFIFFTYAMGWYRQAPGKERELVAAISSRGGSTYYADSVQGRFTISRDNAKKTVYLQMNSLKPEDTAVYYCAAQAYGGYPYGYWGQGTQVTVSS | high polyreactivity |
| QVHLVESGGGLVQAGGSLRLSCASSGSTFGYYAMGWYRQAPGKERELVAAITGRGGSTYYADSVKGRFTISRDNAKNTVYLQLISLKQEDTAVYYCAVGKYRLYYSGAYGYWGQGTQVTVSS | high polyreactivity |
| QVQLVESGGGLVQAGGSLRLSCAASGSTFRYYAMGWYRQAPGKERELVAAISGSGGRTYYADSVKGRFTISRDNAKNTVYLQMYSLKPEDTAVYYCNTRGRRTDYDYWGQGTQVTVSS | high polyreactivity |
| QVQLVESGGGLVQAGGSLRLSCAASGFTFVYYAMGCYRQAPGKERELVAAISRSGATTFYADSVKGRFTISRDNAKNTVYLQMNSLKPEDTAVYYCAVDSYAYYYGYWGQGTQVTVSS | high polyreactivity |
| QVQLVESGGGLVQAGGSLRLSCAASGRTFRFNAMGWYRQAPGKERELVAAISFRGGSTYYADSVKGRFTISRDNAKNTVYLQMNSLKPEHTAVYYCAARARTGTYRDMYYWGQGTQVTVSS | high polyreactivity |
| QVQLVESGGGLFQAGGSLRLSCAASGFIFTGYAMGWYRQAPGKASELVAVISYSAGSTYYADSVKGRFTISRDNAKNTVYLQMNSLKPEDTAVYYCAADHGKNLTYDYWGQGTQVTVSS | high polyreactivity |
| QVQLVDSGGGLVQAGGSLRLSCAASGGTFTAYTMGWYRQAPGKERELVAAITGDTSTNYADSVKGRFTISRDNAKNTVYLQMNSLKPVDTAVYYCAADVPRSYWRGYDYWGQGTQVTVSS | low polyreactivity |
| PVQLVESGGGLVQAGGSLRLSCAASGFTFRPYAMGWYRPAPGTERELVAAITSGDSTNYADSVKGRFTISRDNAKKTVYLQMNSLKPEDTAVYYCAADSTGRPSVSYDYWGQGTQVTVSS | low polyreactivity |
| QVQLVESGGGLVQAGGSLRLSCAASGSIFIGNTMGWYRQAPGKERELVATIRRSGSRTYDADSVKGRFTISRDNAKNTVYLQMNSLKPEDTAVYYCAADRLRTSGYKTIYDYWGQGTQVTVSS | low polyreactivity |
| QVQLVESGGGLVQAGGSLRLSCAASGFTLLKYDMGWYRQAPGKERELVAAITRRGGRTSYADSVKGRFTISRDNAKNTVYLQMNSLKPEDTAVYYCNADGDTGRFDYWGQGTQVSVSS | high polyreactivity |
| QVQLVESGGGLVQAGGSLRLTCAASGSTFKYYAMGWYRQAPGKERELVAAINQSGGNTFYAESVKGRFTISRDNAKNSVSLQINSLKPEDTAVYYCAADYYFYTIVSSEMDYWGQGSQVTVSS | high polyreactivity |
| QVQLVESGGGLFQAGGSLRLSCAASGRIFGYNAMAGYRQAPGKERELVAVITYSGGSTYYADSVKGRFTISRDNAKNTVYLQMKSLKPEDTAVYYCIARPIDRYSGSGKQWPDYNYWGQGTQFTVSS | low polyreactivity |
| QVQLVESGGGLVQAGGSLRLSCAASGITLTKNAMGWYSQAPGKERELVAGITRGSRTNYADSVKGRFTISRDNAKNTVYLQMNSLKPEDTAVYYCAASYWPYRGPVGGSKMYYWGQGTQVTVSS | high polyreactivity |
| QVQLVESGGGLVQAGGSLRLSCAASGFTFKYNAMGWNRQAPGKERELVASISSGSTNYADSVKGRFTISRDNAKNTVYLQMNSLKPEDTAVYYCAASVSRGKRVRYGYLFKMDYWGQGTLVTVSS | low polyreactivity |
| QVQLVESGGGLVLAGGSLRLSCAASGITFFTYTMGWYRQAPGKERELVARIRWDGGSTYYADSVKGRFTISRDNAKNTVYLQMNSLKPEDTAVYYCAADYPYSTYDYWGQGTQVTVSS | low polyreactivity |
| QVQLVESGGGLVQSRGSLRLSWAASGSTFTYNTMGWYRQAPGKERELVAAISSGGSTYYADSVKGRFTISRDNAKNTVFLQMNSLKPEDTAVYYCAATAQKDSRYGSRYYYWGQGTQVTVSS | high polyreactivity |
